Key:
[1] = target: BHA10 HC_7.8_B + BHA10 LC (IgG1); test: LCMS, IgG1 BsAb co-expression in HEK293F
[2] = target: matuzumab HC_7.8_B + matuzumab LC (IgG1); test: LCMS, IgG1 BsAb co-expression in HEK293F
[3] = LCMS, IgG1 BsAb co-expression; HCA homodimer species
[4] = target: BHA10 HC_7.8_B + BHA10 LC (IgG1); test: LCMS, IgG1 BsAb co-expression; HCA/HCB heterodimer carrying two LC1
[5] = target: matuzumab HC_7.8_B + matuzumab LC (IgG1); test: as above
[6] = target: BHA10 HC_7.8_B + BHA10 LC (IgG1); test: LCMS, IgG1 BsAb co-expression; HCA/HCB heterodimer carrying two LC2
[7] = target: matuzumab HC_7.8_B + matuzumab LC (IgG1); test: as above
[8] = target: BHA10 HC_7.8.60_B + BHA10 LC (IgG1); test: LCMS, IgG1 BsAb co-expression in HEK293F
[9] = target: matuzumab HC_7.8.60_B + matuzumab LC (IgG1); test: LCMS, IgG1 BsAb co-expression in HEK293F
[10] = target: BHA10 HC_7.8.60_B + BHA10 LC (IgG1); test: LCMS, IgG1 BsAb co-expression; HCA/HCB heterodimer carrying two LC1
[11] = target: matuzumab HC_7.8.60_B + matuzumab LC (IgG1); test: as above
[12] = target: BHA10 HC_7.8.60_B + BHA10 LC (IgG1); test: LCMS, IgG1 BsAb co-expression; HCA/HCB heterodimer carrying two LC2
[13] = target: matuzumab HC_7.8.60_B + matuzumab LC (IgG1); test: as above
[14] = target: BHA10 HC_20.8.34_B + BHA10 LC (IgG1); test: LCMS, IgG1 BsAb co-expression in HEK293F
[15] = target: BHA10 HC_20.8.37_B + BHA10 LC (IgG1); test: LCMS, IgG1 BsAb co-expression in HEK293F
[16] = target: BHA10 HC_20.8_B + BHA10 LC (IgG1); test: LCMS, IgG1 BsAb co-expression in HEK293F
[17] = target: matuzumab HC_20.8.34_B + matuzumab LC (IgG1); test: LCMS, IgG1 BsAb co-expression in HEK293F
[18] = target: matuzumab HC_20.8.37_B + matuzumab LC (IgG1); test: LCMS, IgG1 BsAb co-expression in HEK293F
[19] = target: matuzumab HC_20.8_B + matuzumab LC (IgG1); test: LCMS, IgG1 BsAb co-expression in HEK293F
[20] = target: BHA10 HC_20.8.34_B + BHA10 LC (IgG1); test: LCMS, IgG1 BsAb co-expression; HCA/HCB heterodimer carrying two LC1
[21] = target: BHA10 HC_20.8.37_B + BHA10 LC (IgG1); test: as above
[22] = target: BHA10 HC_20.8_B + BHA10 LC (IgG1); test: as above
[23] = target: matuzumab HC_20.8.34_B + matuzumab LC (IgG1); test: as above
[24] = target: matuzumab HC_20.8.37_B + matuzumab LC (IgG1); test: as above
[25] = target: matuzumab HC_20.8_B + matuzumab LC (IgG1); test: as above
[26] = target: BHA10 HC_20.8.34_B + BHA10 LC (IgG1); test: LCMS, IgG1 BsAb co-expression; HCA/HCB heterodimer carrying two LC2
[27] = target: BHA10 HC_20.8.37_B + BHA10 LC (IgG1); test: as above
[28] = target: BHA10 HC_20.8_B + BHA10 LC (IgG1); test: as above
[29] = target: matuzumab HC_20.8.34_B + matuzumab LC (IgG1); test: as above
[30] = target: matuzumab HC_20.8.37_B + matuzumab LC (IgG1); test: as above
[31] = target: matuzumab HC_20.8_B + matuzumab LC (IgG1); test: as above
[32] = target: T1, HA-tagged human IgG1 Fc portion with CH3 mutations K360D, D399M, Y407A; test: UPLC SEC of protein G-purified one-arm antibody co-expressed in HEK293F
T1 chain: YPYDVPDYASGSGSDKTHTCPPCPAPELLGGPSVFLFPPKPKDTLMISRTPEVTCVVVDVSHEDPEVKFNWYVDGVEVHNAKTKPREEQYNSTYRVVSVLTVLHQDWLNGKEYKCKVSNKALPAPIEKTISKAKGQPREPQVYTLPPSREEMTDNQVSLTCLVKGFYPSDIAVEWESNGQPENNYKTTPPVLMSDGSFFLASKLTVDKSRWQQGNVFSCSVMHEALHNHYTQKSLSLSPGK

[33] = pertuzumab × matuzumab bispecific

B1: pertuzumab HC_7.8_A + pertuzumab LC (IgG1) (protein)
chain 1: EVQLVESGGGLVQPGGSLRLSCAASGFTFTDYTMDWVRKAPGKGLEWVADVNPNSGGSIYNQEFKGRFTLSVDRSKNTLYLQMNSLRAEDTAVYYCARNLGPSFYFDYWGQGTLVTVSSASTKGPSVFPLAPSSKSTSGGTAALGCLVKDYFPEPVTVSWNSGALTSGVATGPAVLQSSGLYSLSSVVTVPSSSLGTQTYICNVNHKPSNTKVDKKVEPKSCDKTHTCPPCPAPELLGGPSVFLFPPKPKDTLMISRTPEVTCVVVDVSHEDPEVKFNWYVDGVEVHNAKTKPREEQYQSTYRVVSVLTVLHQDWLNGKEYKCKVSNKALPAPIEKTISKAKGQPREPQVYTLPPSREEMTKNQVSLTCLVKGFYPSDIAVEWESNGQPENNYKTTPPVLMSDGSFFLASKLTVDKSRWQQGNVFSCSVMHEALHNHYTQKSLSLSPGK
chain 2: RIQMTQSPSSLSASVGDRVTITCKASQDVSIGVAWYQDKPGKAPKLLIYSASYRYTGVPSRFSGSGSGTDFTLTISSLQPEDFATYYCQQYYIYPYTFGQGTKVEIKGQPKAAPSVTLFPPSSEELQANKATLVCYISDFYPGAVTVAWKADSSPVKAGVETTTPSKQSNNKYAAWSYLSLTPEQWKSHRSYSCQVTHEGSTVEKTVAPTEC
% AB (LC1/LC2) (correct IgG BsAb assembly) [1]: 69.3% | % AB (LC1/LC2) (correct IgG BsAb assembly) [2]: 95.4% | % AA Homodimer (incorrect assembly) ([3]; pertuzumab × BHA10 bispecific): 0% | % AA Homodimer (incorrect assembly) [3, 33]: 0.5% | % AB (2x LC1) (incorrect assembly) [4]: 15.6% | % AB (2x LC1) (incorrect assembly) [5]: 0% | % AB (2x LC2) (incorrect assembly) [6]: 0% | % AB (2x LC2) (incorrect assembly) [7]: 1.2%

B2: pertuzumab HC_7.8.60_A + pertuzumab LC (IgG1) (protein)
chain 1: EVQLVESGGGLVQPGGSLRLSCAASGFTFTDYTMDWVRKAPGKGLEWVADVNPNSGGSIYNQEFKGRFTLSVDRSKNTLYLQMNSLRAEDTAVYYCARNLGPSFYFDYWGQGTLVTVSSASTKGPSVFPLAPSSKSTSGGTAALGCLVKDYFPEPVTVSWNSGALTSGVATGPAVLQSSGLYSLSSVVTVPSSSLGTQTYICNVNHKPSNTKVDKKVEPKSCDKTHTCPPCPAPELLGGPSVFLFPPKPKDTLMISRTPEVTCVVVDVSHEDPEVKFNWYVDGVEVHNAKTKPREEQYQSTYRVVSVLTVLHQDWLNGKEYKCKVSNKALPAPIEKTISKAKGQPREPQVYTLPPSREEMTDNQVSLTCLVKGFYPSDIAVEWESNGQPENNYKTTPPVLMSDGSFFLASKLTVDKSRWQQGNVFSCSVMHEALHNHYTQKSLSLSPGK
chain 2: RIQMTQSPSSLSASVGDRVTITCKASQDVSIGVAWYQDKPGKAPKLLIYSASYRYTGVPSRFSGSGSGTDFTLTISSLQPEDFATYYCQQYYIYPYTFGQGTKVEIKGQPKAAPSVTLFPPSSEELQANKATLVCYISDFYPGAVTVAWKADSSPVKAGVETTTPSKQSNNKYAAWSYLSLTPEQWKSHRSYSCQVTHEGSTVEKTVAPTEC
% AB (LC1/LC2) (correct IgG BsAb assembly) [8]: 95.2% | % AB (LC1/LC2) (correct IgG BsAb assembly) [9]: 98.1% | % AA Homodimer (incorrect assembly) ([3]; pertuzumab × BHA10 bispecific): 0.7% | % AA Homodimer (incorrect assembly) [3, 33]: 0.6% | % AB (2x LC1) (incorrect assembly) [10]: 0% | % AB (2x LC1) (incorrect assembly) [11]: 0% | % AB (2x LC2) (incorrect assembly) [12]: 2.5% | % AB (2x LC2) (incorrect assembly) [13]: 0%

B3: pertuzumab HC_20.8.26_A + pertuzumab LC (IgG1) (protein)
chain 1: EVQLVESGGGLVQPGGSLRLSCAASGFTFTDYTMDWVRKAPGKGLEWVADVNPNSGGSIYNQEFKGRFTLSVDRSKNTLYLQMNSLRAEDTAVYYCARNLGPSFYFDYWGQGTLVTVSSASTKGPSVFPLAPSSKSTSGGTAALGCLVKDYFPEPVTVSWNSGALTSGVATGPAVLQSSGLYSLSSVVTVPSSSLGTQTYICNVNHKPSNTKVDKKVEPKSCDKTHTCPPCPAPELLGGPSVFLFPPKPKDTLMISRTPEVTCVVVDVSHEDPEVKFNWYVDGVEVHNAKTKPREEQYQSTYRVVSVLTVLHQDWLNGKEYKCKVSNKALPAPIEKTISKAKGQPREPQVSTLPPSREEMTKNQVSLMCLVYGFYPSDIAVEWESNGQPENNYKTTPPVLDSDGSFFLYSVLTVDKSRWQQGNVFSCSVMHEALHNHYTQKSLSLSPGK
chain 2: RIQMTQSPSSLSASVGDRVTITCKASQDVSIGVAWYQDKPGKAPKLLIYSASYRYTGVPSRFSGSGSGTDFTLTISSLQPEDFATYYCQQYYIYPYTFGQGTKVEIKGQPKAAPSVTLFPPSSEELQANKATLVCYISDFYPGAVTVAWKADSSPVKAGVETTTPSKQSNNKYAAWSYLSLTPEQWKSHRSYSCQVTHEGSTVEKTVAPTEC
% AB (LC1/LC2) (correct IgG BsAb assembly) [14]: 90.3% | % AB (LC1/LC2) (correct IgG BsAb assembly) [15]: 89.6% | % AB (LC1/LC2) (correct IgG BsAb assembly) [16]: 96.9% | % AB (LC1/LC2) (correct IgG BsAb assembly) [17]: 96.9% | % AB (LC1/LC2) (correct IgG BsAb assembly) [18]: 97.6% | % AB (LC1/LC2) (correct IgG BsAb assembly) [19]: 95.2% | % AB (2x LC1) (incorrect assembly) [20]: 9.7% | % AB (2x LC1) (incorrect assembly) [21]: 7.5% | % AB (2x LC1) (incorrect assembly) [22]: 0% | % AB (2x LC1) (incorrect assembly) [23]: 0% | % AB (2x LC1) (incorrect assembly) [24]: 0% | % AB (2x LC1) (incorrect assembly) [25]: 0% | % AB (2x LC2) (incorrect assembly) [26]: 0% | % AB (2x LC2) (incorrect assembly) [27]: 0% | % AB (2x LC2) (incorrect assembly) [28]: 0% | % AB (2x LC2) (incorrect assembly) [29]: 0% | % AB (2x LC2) (incorrect assembly) [30]: 0% | % AB (2x LC2) (incorrect assembly) [31]: 0%

B4: anti-c-Met 5D5 VH-human IgG1 HC with CH3 mutations E345R, Q347R, T366V, K409V, with 5D5 light chain (protein)
chain 1: EVQLVESGGGLVQPGGSLRLSCAASGYTFTSYWLHWVRQAPGKGLEWVGMIDPSNSDTRFNPNFKDRFTISADTSKNTAYLQMNSLRAEDTAVYYCATYRSYVTPLDYWGQGTLVTVSSASTKGPSVFPLAPSSKSTSGGTAALGCLVKDYFPEPVTVSWNSGALTSGVHTFPAVLQSSGLYSLSSVVTVPSSSLGTQTYICNVNHKPSNTKVDKRVEPKSCDKTHTCPPCPAPELLGGPSVFLFPPKPKDTLMISRTPEVTCVVVDVSHEDPEVKFNWYVDGVEVHNAKTKPREEQYNSTYRVVSVLTVLHQDWLNGKEYKCKVSNKALPAPIEKTISKAKGQPRRPRVYTLPPSREEMTKNQVSLVCLVKGFYPSDIAVEWESNGQPENNYKTTPPVLDSDGSFFLYSVLTVDKSRWQQGNVFSCSVMHEALHNHYTQKSLSLSPGK
chain 2: DIQMTQSPSSLSASVGDRVTITCKSSQSLLYTSSQKNYLAWYQQKPGKAPKLLIYWASTRESGVPSRFSGSGSGTDFTLTISSLQPEDFATYYCQQYYAYPWTFGQGTKVEIKRTVAAPSVFIFPPSDEQLKSGTASVVCLLNNFYPREAKVQWKVDNALQSGNSQESVTEQDSKDSTYSLSSTLTLSKADYEKHKVYACEVTHQGLSSPVTKSFNRGEC
% heterodimer (UPLC) [32]: 93.3%
